Patent US20110038941A1

Target: CD20 cell surface antigen (human) (UniProt P11836)
Assay: flow cytometry of FAM-ODN fluorescence on Raji cells

UniProt P11836, sequence (P11836 whole entry): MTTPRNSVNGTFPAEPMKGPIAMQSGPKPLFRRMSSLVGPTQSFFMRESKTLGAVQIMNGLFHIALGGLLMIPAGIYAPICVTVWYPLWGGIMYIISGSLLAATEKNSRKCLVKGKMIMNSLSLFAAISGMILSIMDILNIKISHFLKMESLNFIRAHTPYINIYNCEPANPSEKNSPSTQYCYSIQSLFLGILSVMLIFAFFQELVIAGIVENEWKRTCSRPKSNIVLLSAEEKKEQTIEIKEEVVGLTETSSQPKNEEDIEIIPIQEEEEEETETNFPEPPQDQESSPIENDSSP

**Q.** For “Rituximab (anti-CD20 antibody) conjugated cationic immunoliposomes”, which fold fluorescence intensity of FAM-ODN against FAM-ODN loaded LP and Her ILP is on record?
**A.** 10 fold

**Q.** And the fold fluorescence intensity of FAM-ODN against free FAM-ODN?
**A.** 20 fold
